The results in this text go back to patent US6183121.

In series [1] the target is HCV NS3 helicase domain (wild type) (Hepatitis C virus) (UniProt P26664). Particulars: requires ATP and Mn2+ or Mg2+; 25 mM MOPS pH 6.5, 1 mM ATP, 0.5 mM MnCl2, 37 C.
Series [2] deals with HCV NS3 full-length (wild type) (Hepatitis C virus) (UniProt P26664).
Series [3] concerns the target HCV NS3 helicase domain (wild type) (Hepatitis C virus) (UniProt P26664). Briefly: filter. The settings on record: 25 mM MOPS pH 7.0, 2 mM DTT, 30 C; 0.445 RNA per helicase molecule; koff 1.52e-2 min-1.
Series [4] concerns the target HCV NS3 full-length (wild type) (Hepatitis C virus) (UniProt P26664). Briefly: filter. The settings on record: reference.
Series [5] has as its target HCV NS3 helicase domain (wild type) (Hepatitis C virus) (UniProt P26664). Particulars: poly(U)-stimulated ATPase; 50 mM MOPS pH 7.0, 0.5 mM MgCl2, 37 C.

pKd: −log10 of the molar value.

The pKd is −log10 of the Kd, conventionally taken in molar units.

“3'-tailed 98-nt RNA / 34-nt DNA hybrid (pSP65 BsrBI transcript; pSP64 release strand)”: the activity (% of WT unwinding) in series [1] and in series [2] (reference) was 100 throughout.
“34-nt ssRNA (SP6 transcript of BamHI-digested pSP64)” showed a pKd in series [3] of 8.29. Moreover, in series [4], the binding signal is 100 % of WT.
Take poly(U): the activity (% of basal WT ATPase) amounted to 823 in series [5] and 581 in series [2] (poly(U)-stimulated ATPase).
